Assay results published in the supplement of paper PMC10126150.
± gives the standard deviation of the averaged measurements.

tested on: ATP; experiment: switch fluorescence ratio, 500 uM ATP over buffer (Cy3 cluster intensity, sum of 5 cycles each) (fold (ratio)); higher = stronger signal-on switching upon ATP binding; sequences stand for … in TCGTCGGCAGCGTCAGATGTGTATAAGAGACAGTTTTTTTTTTTTTTTTTTTTTTTTT…TC; conditions: aptamer strand: ATP DNA aptamer (quencher-CACCTGGGGGAGTATTGCGGAGGAAGG + anchor), 100 nM annealed; ATP concentration: 500 uM
Procedure, shortened: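 The quencher-labelled ATP aptamer, at 100 nM, was annealed to Cy3-labelled switching-strand clusters on a modified Illumina MiSeq flow-cell. The clusters were imaged in selection buffer, then after 15 min with 500 uM ATP at 22 °C, and this buffer/ATP cycle ran five times with NaOH stripping and re-annealing between runs. Per-cluster fluorescence ratios, summed target-cycle over summed buffer-cycle Cy3 intensity, were averaged per switch-domain sequence. Clusters outside 100-1000 RFU were excluded.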
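Note: ATP exposure 15 min at 22 °C before imaging.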

Point of comparison: TTGTCCGAGC, switch fluorescence ratio 1.06 ± 0.023. Against it:
- TATTGTTGGG — lower, 0.976 ± 0.03
- GTGTTTGGTG — lower, 1 ± 0.032
- ACTGGGTGGA — within error, 1.02 ± 0.034
- GCGACGTGAC — higher, 3.17 ± 0.24
- GATGCGGTG — lower, 1 ± 0.012
- GACAGTGGTA — lower, 0.973 ± 0.013
- CCAGGTGGGA — higher, 3.53 ± 1.5
- GTGGTAGCCG — lower, 1.0015 ± 0.00029
- TTTTCATTTG — within error, 1.01 ± 0.034
- CGTAAGGCAG — within error, 1 ± 0.038
- GGGTGTAGCG — lower, 0.965 ± 0.026
- ATCTCGCAGG — within error, 1.08 ± 0.031
- TTGGTCAAAT — within error, 1.04 ± 0.022
- AGATTGGGGG — lower, 0.969 ± 0.034
- CGTCAAAAAC — higher, 1.38 ± 0.2
- GCTTCTGGCA — lower, 0.999 ± 0.023
- ATCCGCGCGT — lower, 1 ± 0.014
- CGCCTTTACC — higher, 1.18 ± 0.013
- GGGGTTGTGG — lower, 0.988 ± 0.032
- TGTTAATCAG — lower, 0.98605 ± 0.00081
- TTGGGGTGTT — lower, 1 ± 0.031
- CATGAATGGG — within error, 1.01 ± 0.032
- GTATGGGATG — lower, 0.993 ± 0.015
- CTGTGTGGCC — within error, 0.968 ± 0.073
- TGCTACAGGT — within error, 1.04 ± 0.022
- TAGGATTGG — lower, 0.971 ± 0.015
- TTTATCTTTT — lower, 1 ± 0.028
- ACAGACAGGC — within error, 1.05 ± 0.062
- GGGGATGGTC — lower, 0.962 ± 0.0016
- TCGGTTTTTA — within error, 1 ± 0.043
- AGCTGTACTG — within error, 1.09 ± 0.011
- CGCCGTCTCA — within error, 1.02 ± 0.042
- GGTTGGACAG — lower, 0.988 ± 0.011
- GTTAGTCTGT — lower, 0.9907 ± 0.0052
- GCACGCAGGA — within error, 1.054 ± 0.006
- GGGGGCGACT — lower, 0.978 ± 0.021
- GCGGGAAGCT — within error, 1.05 ± 0.044
- TGATGTTAAA — lower, 0.998 ± 0.01
- ATCCTCTGCC — higher, 3.16 ± 0.72
- TTAACAGGAA — lower, 1.024 ± 0.0095
- GGGGGAGGGC — within error, 1.01 ± 0.031
- TGGTTTAAAT — within error, 1.04 ± 0.054
- GAATGCCTGT — lower, 1.033 ± 0.0065
- TAATTAAGGA — lower, 1.004 ± 0.0096
- AGAGCATGGG — lower, 0.971 ± 0.016
- AGTGGTGAGT — lower, 0.977 ± 0.025
- AGAAGAGGTA — lower, 0.949 ± 0.024
- CATTGAATAT — within error, 0.996 ± 0.043
- GCATTTCATG — lower, 0.987 ± 0.021
- TCTGGTAATT — lower, 1 ± 0.02
- ATGATATCTC — within error, 1.02 ± 0.047
- AAATAGGTGG — lower, 0.996 ± 0.024
- TTATCTGATT — lower, 0.9952 ± 0.0017
- GCGGGGCCAC — within error, 1.2 ± 0.26
- TATAGCTTCG — within error, 1 ± 0.043
- TGAGGGGCAG — lower, 0.984 ± 0.013
- GGGATGGGCG — within error, 1.03 ± 0.031
- CAAATAATAG — lower, 0.977 ± 0.033
- TTCGGTAGTG — lower, 0.9923 ± 0.0083
- ATTGGACTG — within error, 1.01 ± 0.035
- GAAGGGCAAG — within error, 1.02 ± 0.038
- CGGTGAATTT — lower, 0.98263 ± 0.0009
- CATGGCCAGG — the same, 1.06 ± 0.079
- AGATCGAGTT — lower, 0.99 ± 0.041
- GGGGGAGCTA — lower, 1 ± 0.032
- TGATTTATTC — lower, 0.9632 ± 0.0032
- AGCGGGAGAT — within error, 1.01 ± 0.061
- TTTATGGTTG — within error, 1.02 ± 0.064
- AGAGTAGGGA — lower, 0.989 ± 0.02
- AATGTGGTAA — lower, 0.959 ± 0.043
- GCATCTTCAC — within error, 1.0378 ± 0.00044
- CGTGAATCTG — lower, 0.9669 ± 0.006
- TGGAGTTTTT — lower, 0.985 ± 0.032
- GCGTCGATTA — lower, 0.96 ± 0.015
- TCCGATGTTT — higher, 1.76 ± 0.27
- TAATAAGGCT — lower, 0.9935 ± 0.0076
- CGGAGATGGC — within error, 1.05 ± 0.038
- TTCGGGGCCA — lower, 0.991 ± 0.013
- AGGCATTAAT — lower, 1.01 ± 0.018
- GAGATTGCGG — lower, 0.9849 ± 0.0012
- TCAACGCAGG — higher, 1.19 ± 0.065
- ATGTGCCGTC — within error, 1.04 ± 0.048
- TACGGGCGCG — lower, 0.981 ± 0.017
- CGCGTTGTTG — within error, 1.03 ± 0.012
- ACGGGTAATT — within error, 1.02 ± 0.037
- GTACATATAA — within error, 1.03 ± 0.011
- TCCGGAGGCA — higher, 2.2 ± 0.059
- ATGGAATAAG — lower, 0.998 ± 0.028
- GACGTTCATA — within error, 1.083 ± 0.0089
- TTGAGGCCTT — lower, 1.01 ± 0.022
- CGTTCTTGTT — lower, 0.976 ± 0.032
- CTTGGGTGAA — within error, 1.09 ± 0.19
- TAAAACTCCA — within error, 1.03 ± 0.038
- TGGGAGTCTG — lower, 0.9898 ± 0.0047
- GGGGATGGCA — lower, 1.02 ± 0.012
- CTAATTGTGT — lower, 0.9933 ± 0.0034
- CCGGGCGTGG — within error, 1.09 ± 0.025
- GGGGGGAATA — within error, 1 ± 0.047
- ATTCGGGGCT — within error, 1 ± 0.038
- AGCTAATTTT — lower, 1.02 ± 0.013
- TTATTTGTGG — lower, 0.97 ± 0.02
- GTTTAATTTA — within error, 1.01 ± 0.03
- GAGGGGCACG — lower, 0.935 ± 0.1
- CAGGATGTAC — within error, 1.05 ± 0.063
- GGGTTGTGTG — within error, 0.991 ± 0.11
- GGGTTGTTTT — lower, 0.9944 ± 0.0082
- CGTACTTTTT — lower, 1 ± 0.032
- CATGTGGGGG — lower, 0.985 ± 0.027
- GGATCTTTTT — within error, 1.03 ± 0.026
- CGGTACGGGT — lower, 0.992 ± 0.025
- TATATGTGGC — within error, 1.07 ± 0.068
- TATGTAGGTA — within error, 0.994 ± 0.047
- GATGAGGGGT — lower, 0.986 ± 0.038
- TTGTTTGGAT — within error, 1.01 ± 0.05
- TTGTGGAACG — lower, 0.989 ± 0.019
- ATTAGTTTTG — lower, 0.99 ± 0.029
- TATACTGCGC — within error, 1.065 ± 0.0087
- CGGACTAGCG — lower, 0.944 ± 0.032
- CTCAGGGCCG — within error, 1.05 ± 0.11
- TTTATTGGT — lower, 1.01 ± 0.018
- TCAGAGGCTG — lower, 0.988 ± 0.015
- TGAGTGGATG — within error, 0.971 ± 0.075
- GTGGGAGG — within error, 1.02 ± 0.025
- CGTGGTTTGT — lower, 0.9874 ± 0.0051
- GGGTAGGGTC — lower, 1.01 ± 0.022
- TGACCAGGCA — within error, 1.05 ± 0.056
- GACATAGACC — within error, 1.048 ± 0.0075
- GAGGTATTTT — within error, 1.34 ± 0.65
- GAAAAAATTT — lower, 1.031 ± 0.0019
- GGTATGGGGT — within error, 1.03 ± 0.058
- AAAAGAATGG — lower, 0.971 ± 0.043
- GGGAGCGCGT — within error, 1.02 ± 0.056
- ACTTCAGCAG — higher, 1.12 ± 0.023
- CATATCTAGC — lower, 0.997 ± 0.034
- TAAATTGGTA — within error, 1.04 ± 0.016
- TGCTTTGGGG — within error, 0.982 ± 0.071
- CGGCTAAAGA — lower, 0.976 ± 0.011
- CTCTGAGGTT — lower, 1 ± 0.035
- TTGAGTTTTA — lower, 1.01 ± 0.021
- CGGGTTCGTG — lower, 0.972 ± 0.029
- GGGGTGTAGC — lower, 0.992 ± 0.042
- AGAAAATATT — lower, 1.004 ± 0.0076
- CCGGTGTGTT — within error, 1.03 ± 0.086
- TTGTGAGGGA — lower, 0.9946 ± 0.0034
- CATATGGGCG — within error, 1.03 ± 0.064
- AGCACGGGGG — within error, 1.19 ± 0.28
- TGAATACTTT — within error, 0.996 ± 0.044
- TGGTTGTGCG — within error, 1.04 ± 0.018
- TATTTTAGC — lower, 0.971 ± 0.034
- ATAACATGAC — higher, 1.21 ± 0.0044
- CAGTAGATGG — lower, 0.985 ± 0.024
- GCATTTTTTC — within error, 1.03 ± 0.019
- GACTTAGGTA — lower, 0.975 ± 0.027
- TTGATTCATG — within error, 0.999 ± 0.04
- TTTTCGCTGT — lower, 1.02 ± 0.016
- AACGTAAATA — within error, 1.11 ± 0.053
